Drawing on patent US20210145860A1, this text covers decrease in GFP mean fluorescence intensity (MFI), flow cytometry of HeLa cells for one substance.

This experiment addresses green fluorescent protein (GFP) [GFP: P42212]. The experiment can be described thus: cell-based or functional assay.

Chain of E3-ubiquitin ligase encoded by mRNA Construct G of Table 1 (ER signal-vhhGFP4-cereblon-FLAG-ER retention sequence) (Q96SW2 whole entry): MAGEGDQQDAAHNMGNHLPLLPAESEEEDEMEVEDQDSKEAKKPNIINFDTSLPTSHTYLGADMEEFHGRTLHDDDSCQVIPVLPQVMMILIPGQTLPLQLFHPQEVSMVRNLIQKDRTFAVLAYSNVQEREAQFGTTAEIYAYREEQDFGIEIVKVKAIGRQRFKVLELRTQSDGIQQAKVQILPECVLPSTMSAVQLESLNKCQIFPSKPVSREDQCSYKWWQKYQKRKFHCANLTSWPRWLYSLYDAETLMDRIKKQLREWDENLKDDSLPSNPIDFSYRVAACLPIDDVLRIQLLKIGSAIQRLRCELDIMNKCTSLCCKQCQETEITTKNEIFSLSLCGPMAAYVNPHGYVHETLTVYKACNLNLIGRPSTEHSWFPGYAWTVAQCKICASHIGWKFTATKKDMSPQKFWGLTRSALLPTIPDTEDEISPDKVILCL

In turn, “E3-ubiquitin ligase encoded by mRNA Construct G of Table 1 (ER signal-vhhGFP4-cereblon-FLAG-ER retention sequence) (from UniProt Q96SW2 1-442)” displayed a decrease in GFP mean fluorescence intensity (MFI), flow cytometry of HeLa cells at 10:1 Construct G:GFP RNA of 46%.
